Test results published in US20100075908A1 (published 2010).
Non-standard residues stand in square brackets, D forms with d. No end group written: not given here.

B6: fibrinogen (ligand)
chain 1: ADSGEGDFLAEGGGVRGPRVVERHQSACKDSDWPFCSDEDWNYKCPSGCRMKGLIDEVNQDFTNRINKLKNSLFEYQKNNKDSHSLTTNIMEILRGDFSSANNRDNTYNRVSEDLRSRIEVLKRKVIEKVQHIQLLQKNVRAQLVDMKRLEVDIDIKIRSCRGSCSRALAREVDLKDYEDQQKQLEQVIAKDLLPSRDRQHLPLIKMKPVPDLVPGNFKSQLQKVPPEWKALTDMPQMRMELERPGGNEITRGGSTSYGTGSETESPRNPSSAGSWNSGSSGPGSTGNRNPGSSGTGGTATWKPGSSGPGSTGSWNSGSSGTGSTGNQNPGSPRPGSTGTWNPGSSERGSAGHWTSESSVSGSTGQWHSESGSFRPDSPGSGNARPNNPDWGTFEEVSGNVSPGTRREYHTEKLVTSKGDKELRTGKEKVTSGSTTTTRRSCSKTVTKTVIGPDGHKEVTKEVVTSEDGSDCPEAMDLGTLSGIGTLDGFRHRHPDEAAFFDTASTGKTFPGFFSPMLGEFVSETESRGSESGIFTNTKESSSHHPGIAEFPSRGKSSSYSKQFTSSTSYNRGDSTFESKSYKMADEAGSEADHEGTHSTKRGHAKSRPV
chain 2: QGVNDNEEGFFSARGHRPLDKKREEAPSLRPAPPPISGGGYRARPAKAAATQKKVERKAPDAGGCLHADPDLGVLCPTGCQLQEALLQQERPIRNSVDELNNNVEAVSQTSSSSFQYMYLLKDLWQKRQKQVKDNENVVNEYSSELEKHQLYIDETVNSNIPTNLRVLRSILENLRSKIQKLESDVSAQMEYCRTPCTVSCNIPVVSGKECEEIIRKGGETSEMYLIQPDSSVKPYRVYCDMNTENGGWTVIQNRQDGSVDFGRKWDPYKQGFGNVATNTDGKNYCGLPGEYWLGNDKISQLTRMGPTELLIEMEDWKGDKVKAHYGGFTVQNEANKYQISVNKYRGTAGNALMDGASQLMGENRTMTIHNGMFFSTYDRDNDGWLTSDPRKQCSKEDGGGWWYNRCHAANPNGRYYWGGQYTWDMAKHGTDDGVVWMNWKGSWYSMRKMSMKIRPFFPQQ
chain 3: YVATRDNCCILDERFGSYCPTTCGIADFLSTYQTKVDKDLQSLEDILHQVENKTSEVKQLIKAIQLTYNPDESSKPNMIDAATLKSRKMLEEIMKYEASILTHDSSIRYLQEIYNSNNQKIVNLKEKVAQLEAQCQEPCKDTVQIHDITGKDCQDIANKGAKQSGLYFIKPLKANQQFLVYCEIDGSGNGWTVFQKRLDGSVDFKKNWIQYKEGFGHLSPTGTTEFWLGNEKIHLISTQSAIPYALRVELEDWNGRTSTADYAMFKVGPEADKYRLTYAYFAGGDAGDAFDGFDFGDDPSDKFFTSHNGMQFSTWDNDNDKFEGNCAEQDGSGWWMNKCHAGHLNGVYYQGGTYSKASTPNGYDNGIIWATWKTRWYSMKKTTMKIIPFNRLTIGEGQQHHLGGAKQAGDV
notes: Soluble plasma fibrinogen flowed over the Biacore chip; also called free fibrinogen

Assays:
[1] = target: T1, GPIb on human platelets (human, UniProt P07359 17-652; P13224 26-206); assay: cell-based or functional assay
[2] = target: von Willebrand factor (vWf) (human) (UniProt P04275); assay: cell-based or functional assay
[3] = target: T1, GPIb on human platelets; assay: inhibition of vWf binding to platelets in PRP, flow cytometry (FITC anti-human vWf)
Description: In order to prepare human platelets for testing, as approved by Canadian Blood Services' Ethics Board, samples of whole blood were drawn from healthy, consenting donors into 2.7-4.0 mL citrated tubes (BD, USA). Platelet rich plasma (PRP) was prepared from whole blood by centrifugation in a Beckman (CS-6R) bench-top centrifuge (r=203.57 mm, Beckman Coulter, USA) 164×g for 15 minutes. PRP from a number of unrelated donors were evaluated on an Adiva 120 Hematology Analyzer (Bayer, Canada) and standardized to a concentration of 300×10⁹ platelets/L in HEPES buffered saline (HBS, 10 mM HEPES, 150 mM NaCl, pH 7.4).
Thereafter the samples were diluted and fixed with 1.0 mL 0.2% formolsaline (0.2% formaldehyde, 150 mM NaCl, pH 7.20) before analysis on a FACS Canto flow cytometer (BD, USA).

[4] = target: T1, GPIb on human platelets; assay: conclusion from inhibition of vWf binding to platelets, flow cytometry
[5] = target: B6; assay: SPR (Biacore), peptide-PEG-biotin on streptavidin chip, fibrinogen in flow, Langmuir analysis
Text: In this case, peptides known to interfere with fibrinogen-GPIIbIIIa interaction were synthesized, and coupled to the end of a long (3400 MW) PEG molecule whose other end was attached to biotin, as illustrated schematically in FIG. 7. As is known in the art, fibrinogen is a soluble protein in the blood plasma essential for clotting of blood which the enzyme thrombin converts into the insoluble protein fibrin. As shown schematically in FIG. 7, the biotin molecule was used to tether down the peptide-PEG onto a streptavidin-modified Biacore chip. This allowed the GPIIbIIIa mimicking peptide to be hanging off the free end of the PEG.
By allowing free fibrinogen to flow past the peptide, the binding kinetics (i.e., the “on/off rate”) between fibrinogen and the peptides were measured. Then, the fibrinogen was released from the peptide. Using several fibrinogen concentrations, it was possible to measure the KD of the binding interaction between the peptide and the fibrinogen.

[6] = target: T2, wild-type GPIIbIIIa (UniProt P08514 32-1039; P05106 27-788, limits assumed); assay: not stated (comparison value given with the SPR results)
T2 construct: also called wild-type GPIIaIIIb (so in the source); integrin alphaIIbbeta3

[dC]GGGGGG[dR][dD][dK][dL]G[dI][dY][dA][dH][dS] (not fully specified) [D-… (D-retro peptide; SEQ ID NO:12)]
Aggregometry % Aggregation on Activation [1]: 78%

[dR][dS][dA][dR][dM][dQ][dV][dC][dW][dN][dA][dF][dK][dN][dR] [D-pep3 (…)]
% agglutination of washed platelets at 10 minutes, ristocetin, aggregometry, 0.1 mg/mL D-pep3 (buffer 66%, BSA 55%) [2]: 69%
% agglutination of washed platelets at 10 minutes, ristocetin, aggregometry, 0.25 mg/mL D-pep3 (buffer 66%, BSA 55%) [2]: 28%
% agglutination of washed platelets at 10 minutes, ristocetin, aggregometry, 0.5 mg/mL D-pep3 (buffer 66%, BSA 55%) [2]: 13%

B1: L10 (HPG conjugate with 10 L-peptides per HPG) (other)
peptide: CGGGGGGSHAYIGLKDR
modifications: also: coupled through vinyl sulfone to 500 kDa hyperbranched polyglycerol, about 10 peptides per HPG
Aggregometry % Aggregation on Activation [1]: 5%

B2: LR10 (HPG conjugate with 10 L-retro peptides per HPG) (other)
peptide: CGGGGGGRDKLGIYAHS
modifications: also: coupled through vinyl sulfone to 500 kDa hyperbranched polyglycerol, about 10 peptides per HPG
notes: Peptide-polymer conjugate
Aggregometry % Aggregation on Activation [1]: 5%
Peptide Concentration at Ic50 [3]: 41 µM

B3: L100 (HPG conjugate with 100 L-peptides per HPG) (other)
peptide: CGGGGGGSHAYIGLKDR
modifications: also: coupled via vinyl sulfone to 500 kDa hyperbranched polyglycerol (HPG), about 100 peptides per HPG
Aggregometry % Aggregation on Activation [1]: 5%

B4: LR100 (HPG conjugate with 100 L-retro peptides per HPG) (other)
peptide: CGGGGGGRDKLGIYAHS
modifications: also: coupled via vinyl sulfone to 500 kDa hyperbranched polyglycerol (HPG), about 100 peptides per HPG
notes: Peptide-polymer conjugate
Aggregometry % Aggregation on Activation [1]: 5%
Peptide Concentration at Ic50 [3]: 22 µM

CGGGGGGSHAYIGLKDR (L-amino acids; free peptide) [L-CGGGGGGSHAYIGLKDR (L-peptide)]
Aggregometry % Aggregation on Activation [1]: 5%
IC50 [3]: 48 µM
Peptide Concentration at Ic50 [3]: 48 µM

B5: L-CGGGGGGRDKLGIYAHS (L-retro peptide) (peptide)
peptide: CGGGGGGRDKLGIYAHS
notes: Linker CGGGGGG followed by the reversed mimotope; L-amino acids; free peptide; also called LR-pep; LR-peptide
Aggregometry % Aggregation on Activation [1]: 5%
IC50 [3]: 34 µM
Peptide Concentration at Ic50 [3]: 34 µM

SHAYIGLKDR [SHAYIGLKDR (SEQ ID NO:8)]
binding result [4]: binds

APLHK (also: coupled to PEG 3400 carrying biotin, coupled end not given here, also called A-peptide 1) [GPIIbIIIa mimotope peptide 1 (APLHK)]
Kd [5]: 12.5 µM

EHIPA (also: coupled to PEG 3400 carrying biotin, coupled end not given here, also called B-peptide 2) [GPIIbIIIa mimotope peptide 2 (EHIPA)]
Kd [5]: 0.334 µM

B6
Kd [6]: 0.103 µM
